This passage reports IC50 results from patent publication US20140011734A1 (Sanofi, published 2014).

A word on the IC50: it is the concentration needed to halve the response being measured. Read a high IC50 as weaker potency in that assay.

The assay has as its target T1, blood platelet receptor glycoprotein Ib-IX-V complex (GPIb) (human, UniProt P07359 17-652; P13224 26-206; P14770 17-177; P40197 17-560).
T1 construct: whole, on cells; also called GPIb complex; GPIb receptor
The assay is described as follows: inhibition of static adhesion of human platelets to coated vWF-A1; grade B = IC50 between 1 µM and 10 µM. How it is done: Platelet rich plasma was carefully transferred again to fresh containers, PGE1 (0.5 μg/ml, Sigma) was added and the suspension was allowed to rest for 5 min. This was followed by another centrifugation step for 15 min at 360 g. The supernatant was discarded and the cell pellets were carefully resuspended in tyrode buffer (NaCl, 137 mM (Sigma S-3014); KCl, 2.7 mM (Sigma P-9541); NaHCO₃,12 mM (Riedel deHaen 31437); NaH₂PO₄×2H₂O, 0.36 mM (Merck 6345); MgCl₂×6 H₂O, 1 mM (Sigma M-2670); Hepes, 10 mM (Sigma H-1016); glucose, 5.6 mM (Merck 8342); BSA, 0.1% (Sigma A7906)), and PGE1 (0.25 μg/ml) was added. After 5 min of resting the suspension was spun down for 15 min at 300 g. The supernatant was discarded and the pellets were carefully resuspended in TBS buffer (Tris-HCl, 50 mM (Fluka 93371); NaCl, 120 mM (Sigma S-3014); KCl, 2.7 mM (Sigma P-9541); CaCl₂, 0.05 mM (Sigma C-3306); MgCl₂×6 H₂O, 2 mM (Sigma M-2670); BSA, 0.1% (Sigma A7906); pH 7.4). The platelet count was adjusted to 2×10⁵ cells/μl, and the suspensions from individual donors were pooled at this stage. The platelets were allowed to rest for 30 min at room temperature before calcein AM (2.5 μM per 2×10⁵ cells/pi (Molecular Probes C-3099)) was added. This was followed by 15 min incubation in the dark. Cells were diluted to 5×10⁴ cells/μl and ReoPro (3 μg/ml (Centocor B. V., Leiden, N L)) was added, followed by a 10 min incubation period in the dark before adding the platelets to the assay plates.
96 well plates (Greiner hb, black, clear bottom, F, 655097) were coated with human recombinant vWF-A1 domain (1.5 μg/well, AA 475-706, expressed in E. coli) in Tris buffer (pH 7.4; Tris-HCl, 25 mM; NaCl, 150 mM) and incubated for 1 h at room temperature. After washing the wells 3× with TBS, blocking buffer (TBS with 5% BSA) was added followed by an incubation for 1 h. The wells were washed again 3× with TBS before 200 μl TBS were added to each well, preventing them from drying out. TBS was flicked out and serial dilutions of the test compound were added. The washed and calcein AM labeled thrombocytes were added to the wells (2.5×10⁶ cells/well). Following an adhesion period of 1.5 h in the dark the wells were washed 3× with TBS. Measurement of fluorescence per well was performed in a SpectraMax M5 reader (Molecular Devices). From the raw data % inhibition and IC₅₀ values were calculated.

Starred links: 1 amine or outer side, 2 acyl side, 3 side chain; linkers in the order of their positions; H or OH if unused. Non-standard residues stand in square brackets, D forms with d. 4‑aminomethylphenylacetic acid = (4-aminomethyl-phenyl)-acetic acid ring linker, O=C(Cc1ccc(CN[*:1])cc1)[*:2]; Chg = N[C@H](C(=O)O)C1CCCCC1; Nle = CCCC[C@H](N)C(=O)O; Dap = NC[C@H](N)C(=O)O; Ahp = NCCCCCCC(=O)O; Ahx = NCCCCCC(=O)O; GABA = NCCCC(=O)O; βAla = NCCC(=O)O

T1 sequence (P07359 17-652, chain 1 of 4): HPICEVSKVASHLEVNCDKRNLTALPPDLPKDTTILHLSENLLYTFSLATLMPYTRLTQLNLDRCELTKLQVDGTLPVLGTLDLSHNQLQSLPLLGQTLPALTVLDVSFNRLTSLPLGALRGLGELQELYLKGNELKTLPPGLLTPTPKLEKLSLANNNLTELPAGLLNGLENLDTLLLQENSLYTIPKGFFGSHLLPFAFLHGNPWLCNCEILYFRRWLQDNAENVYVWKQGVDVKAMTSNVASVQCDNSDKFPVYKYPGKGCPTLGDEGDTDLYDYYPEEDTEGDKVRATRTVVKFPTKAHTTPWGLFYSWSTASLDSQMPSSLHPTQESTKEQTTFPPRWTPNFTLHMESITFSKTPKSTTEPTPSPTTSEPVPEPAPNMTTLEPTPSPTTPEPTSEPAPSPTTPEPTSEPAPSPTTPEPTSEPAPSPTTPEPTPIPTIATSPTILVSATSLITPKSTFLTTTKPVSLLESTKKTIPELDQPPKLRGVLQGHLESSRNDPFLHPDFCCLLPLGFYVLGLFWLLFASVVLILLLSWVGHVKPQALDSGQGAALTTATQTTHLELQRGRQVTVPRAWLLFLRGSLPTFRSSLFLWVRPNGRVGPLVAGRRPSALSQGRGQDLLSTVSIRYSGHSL
T1 sequence (P13224 26-206, chain 2 of 4): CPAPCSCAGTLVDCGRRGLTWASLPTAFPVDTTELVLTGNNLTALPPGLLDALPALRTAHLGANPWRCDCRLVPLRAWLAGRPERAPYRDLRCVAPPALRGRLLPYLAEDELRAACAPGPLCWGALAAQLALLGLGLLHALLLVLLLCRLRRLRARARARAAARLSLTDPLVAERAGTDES
T1 sequence (P14770 17-177, chain 3 of 4): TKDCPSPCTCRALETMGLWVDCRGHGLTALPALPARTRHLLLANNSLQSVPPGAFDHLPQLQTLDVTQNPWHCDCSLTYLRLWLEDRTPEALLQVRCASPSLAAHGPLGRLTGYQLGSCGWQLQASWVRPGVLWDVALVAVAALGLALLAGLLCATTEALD
T1 sequence (P40197 17-560, chain 4 of 4): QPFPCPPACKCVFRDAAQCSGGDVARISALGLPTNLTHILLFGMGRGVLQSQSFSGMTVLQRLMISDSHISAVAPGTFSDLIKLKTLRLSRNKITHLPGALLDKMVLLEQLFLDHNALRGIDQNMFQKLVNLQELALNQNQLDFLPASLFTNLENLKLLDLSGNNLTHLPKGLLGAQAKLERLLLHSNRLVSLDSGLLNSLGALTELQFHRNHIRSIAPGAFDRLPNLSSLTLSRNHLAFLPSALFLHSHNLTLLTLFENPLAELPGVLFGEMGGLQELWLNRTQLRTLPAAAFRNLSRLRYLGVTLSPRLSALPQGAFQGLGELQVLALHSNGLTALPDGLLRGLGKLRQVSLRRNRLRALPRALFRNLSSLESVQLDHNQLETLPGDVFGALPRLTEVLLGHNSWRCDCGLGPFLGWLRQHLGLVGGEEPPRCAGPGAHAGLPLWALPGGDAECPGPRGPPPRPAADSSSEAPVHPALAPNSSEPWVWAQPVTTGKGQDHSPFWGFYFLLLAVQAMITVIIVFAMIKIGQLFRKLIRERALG

B1: Cyclo[Leu-His-Asn-Leu-NH-(CH2)6-CO-Thr-Glu-Dpr-Met-Ala] (peptide)
peptide: cyclo(LHNL[Ahp]TE[Dap]MA)
SMILES: CSCC[C@@H]1NC(=O)[C@H](CN)NC(=O)[C@H](CCC(=O)O)NC(=O)[C@H]([C@@H](C)O)NC(=O)CCCCCCNC(=O)[C@H](CC(C)C)NC(=O)[C@H](CC(N)=O)NC(=O)[C@H](Cc2c[nH]cn2)NC(=O)[C@H](CC(C)C)NC(=O)[C@H](C)NC1=O
B1: the IC50 is 1 to 10 µM.

B2: Cyclo[Ile-His-Asn-Leu-NH-(CH2)6-CO-Thr-Glu-Arg-Met-Ala] (peptide)
peptide: cyclo(IHNL[Ahp]TERMA)
SMILES: CC[C@H](C)[C@@H]1NC(=O)[C@H](C)NC(=O)[C@H](CCSC)NC(=O)[C@H](CCCNC(=N)N)NC(=O)[C@H](CCC(=O)O)NC(=O)[C@H]([C@@H](C)O)NC(=O)CCCCCCNC(=O)[C@H](CC(C)C)NC(=O)[C@H](CC(N)=O)NC(=O)[C@H](Cc2c[nH]cn2)NC1=O
As for B2, the 50% inhibitory concentration (IC50) is 1 to 10 µM.

B3: Cyclo[Leu-His-Asn-Leu-NH-(CH2)6-CO-Thr-Glu-Lys-Met-Ala] (peptide)
peptide: cyclo(LHNL[Ahp]TEKMA)
SMILES: CSCC[C@@H]1NC(=O)[C@H](CCCCN)NC(=O)[C@H](CCC(=O)O)NC(=O)[C@H]([C@@H](C)O)NC(=O)CCCCCCNC(=O)[C@H](CC(C)C)NC(=O)[C@H](CC(N)=O)NC(=O)[C@H](Cc2c[nH]cn2)NC(=O)[C@H](CC(C)C)NC(=O)[C@H](C)NC1=O
As to B3, the IC50 was in the range of 1 to 10 µM.

B4: Cyclo[Leu-His-Asn-Leu-NH-(CH2)6-CO-Asp-Glu-Arg-Met-Ala] (peptide)
peptide: cyclo(LHNL[Ahp]DERMA)
SMILES: CSCC[C@@H]1NC(=O)[C@H](CCCNC(=N)N)NC(=O)[C@H](CCC(=O)O)NC(=O)[C@H](CC(=O)O)NC(=O)CCCCCCNC(=O)[C@H](CC(C)C)NC(=O)[C@H](CC(N)=O)NC(=O)[C@H](Cc2c[nH]cn2)NC(=O)[C@H](CC(C)C)NC(=O)[C@H](C)NC1=O
With B4, the IC50 lay in the range of 1 to 10 µM.

B5: Cyclo[Leu-His-Asn-Leu-NH-(CH2)6-CO-Ser-Glu-Arg-Met-Ala] (peptide)
peptide: cyclo(LHNL[Ahp]SERMA)
SMILES: CSCC[C@@H]1NC(=O)[C@H](CCCNC(=N)N)NC(=O)[C@H](CCC(=O)O)NC(=O)[C@H](CO)NC(=O)CCCCCCNC(=O)[C@H](CC(C)C)NC(=O)[C@H](CC(N)=O)NC(=O)[C@H](Cc2c[nH]cn2)NC(=O)[C@H](CC(C)C)NC(=O)[C@H](C)NC1=O
Regarding B5, the IC50 lay within 1 to 10 µM.

B6: Cyclo[Leu-His-Asn-Leu-NH-(CH2)6-CO-Thr-Glu-Arg-Met-Gln] (peptide)
peptide: cyclo(LHNL[Ahp]TERMQ)
SMILES: CSCC[C@@H]1NC(=O)[C@H](CCCNC(=N)N)NC(=O)[C@H](CCC(=O)O)NC(=O)[C@H]([C@@H](C)O)NC(=O)CCCCCCNC(=O)[C@H](CC(C)C)NC(=O)[C@H](CC(N)=O)NC(=O)[C@H](Cc2c[nH]cn2)NC(=O)[C@H](CC(C)C)NC(=O)[C@H](CCC(N)=O)NC1=O
In turn, B6 registered a half-maximal inhibitory concentration (IC50) of 1 to 10 µM.

B7: Cyclo[Leu-His-Asn-Leu-NH-(CH2)6-CO-Thr-Glu-Arg-Met-Arg] (peptide)
peptide: cyclo(LHNL[Ahp]TERMR)
SMILES: CSCC[C@@H]1NC(=O)[C@H](CCCNC(=N)N)NC(=O)[C@H](CCC(=O)O)NC(=O)[C@H]([C@@H](C)O)NC(=O)CCCCCCNC(=O)[C@H](CC(C)C)NC(=O)[C@H](CC(N)=O)NC(=O)[C@H](Cc2c[nH]cn2)NC(=O)[C@H](CC(C)C)NC(=O)[C@H](CCCNC(=N)N)NC1=O
For the molecule B7, the half-maximal inhibitory concentration (IC50) is 1 to 10 µM.

B8: Cyclo[Leu-His-Asn-Leu-NH-(CH2)6-CO-His-Glu-Arg-Met-Ala] (peptide)
peptide: cyclo(LHNL[Ahp]HERMA)
SMILES: CSCC[C@@H]1NC(=O)[C@H](CCCNC(=N)N)NC(=O)[C@H](CCC(=O)O)NC(=O)[C@H](Cc2c[nH]cn2)NC(=O)CCCCCCNC(=O)[C@H](CC(C)C)NC(=O)[C@H](CC(N)=O)NC(=O)[C@H](Cc2c[nH]cn2)NC(=O)[C@H](CC(C)C)NC(=O)[C@H](C)NC1=O
In the case of B8, the IC50 lay within 1 to 10 µM.

B9: Cyclo[Leu-His-Asn-Leu-NH-(CH2)6-CO-Thr-Glu-Arg-Ile-Ala] (peptide)
peptide: cyclo(LHNL[Ahp]TERIA)
SMILES: CC[C@H](C)[C@@H]1NC(=O)[C@H](CCCNC(=N)N)NC(=O)[C@H](CCC(=O)O)NC(=O)[C@H]([C@@H](C)O)NC(=O)CCCCCCNC(=O)[C@H](CC(C)C)NC(=O)[C@H](CC(N)=O)NC(=O)[C@H](Cc2c[nH]cn2)NC(=O)[C@H](CC(C)C)NC(=O)[C@H](C)NC1=O
Molecule B9 displayed an IC50 of 1 to 10 µM.

B10: Cyclo[Leu-His-Asn-Leu-NH-(CH2)6-CO-Leu-Glu-Arg-Met-Ala] (peptide)
peptide: cyclo(LHNL[Ahp]LERMA)
SMILES: CSCC[C@@H]1NC(=O)[C@H](CCCNC(=N)N)NC(=O)[C@H](CCC(=O)O)NC(=O)[C@H](CC(C)C)NC(=O)CCCCCCNC(=O)[C@H](CC(C)C)NC(=O)[C@H](CC(N)=O)NC(=O)[C@H](Cc2c[nH]cn2)NC(=O)[C@H](CC(C)C)NC(=O)[C@H](C)NC1=O
B10 returned a 50% inhibitory concentration (IC50) of 1 to 10 µM.

B11: Cyclo[Leu-His-Asn-Leu-NH-X4-X3-X2-X1-CO-Thr-Glu-Arg-Met-Ala] of example 3 (peptide)
peptide: cyclo(LHNL[4‑aminomethylphenylacetic acid]TERMA)
SMILES: CSCC[C@@H]1NC(=O)[C@H](CCCNC(=N)N)NC(=O)[C@H](CCC(=O)O)NC(=O)[C@H]([C@@H](C)O)NC(=O)Cc2ccc(cc2)CNC(=O)[C@H](CC(C)C)NC(=O)[C@H](CC(N)=O)NC(=O)[C@H](Cc2c[nH]cn2)NC(=O)[C@H](CC(C)C)NC(=O)[C@H](C)NC1=O
B11 had a half-maximal inhibitory concentration (IC50) of 1 to 10 µM.

B12: Cyclo[Leu-His-Asn-Leu-NH-(CH2)3-CO-Asn-Thr-Glu-Arg-Met-Ala] (peptide)
peptide: cyclo(LHNL[GABA]NTERMA)
SMILES: CSCC[C@@H]1NC(=O)[C@H](CCCNC(=N)N)NC(=O)[C@H](CCC(=O)O)NC(=O)[C@H]([C@@H](C)O)NC(=O)[C@H](CC(N)=O)NC(=O)CCCNC(=O)[C@H](CC(C)C)NC(=O)[C@H](CC(N)=O)NC(=O)[C@H](Cc2c[nH]cn2)NC(=O)[C@H](CC(C)C)NC(=O)[C@H](C)NC1=O
Molecule B12 registered an IC50 of 1 to 10 µM.

B13: Cyclo[Leu-His-Asn-Leu-NH-(CH2)2-CO-Ala-Thr-Glu-Arg-Met-Ala] (peptide)
peptide: cyclo(LHNL[βAla]ATERMA)
SMILES: CSCC[C@@H]1NC(=O)[C@H](CCCNC(=N)N)NC(=O)[C@H](CCC(=O)O)NC(=O)[C@H]([C@@H](C)O)NC(=O)[C@H](C)NC(=O)CCNC(=O)[C@H](CC(C)C)NC(=O)[C@H](CC(N)=O)NC(=O)[C@H](Cc2c[nH]cn2)NC(=O)[C@H](CC(C)C)NC(=O)[C@H](C)NC1=O
B13 gave an IC50 of 1 to 10 µM.

B14: Cyclo[Chg-His-Asn-Leu-NH-(CH2)6-CO-Thr-Glu-Arg-Met-Ala] (peptide)
peptide: cyclo([Chg]HNL[Ahp]TERMA)
B14 displayed an IC50 of 1 to 10 µM.

B15: Cyclo[Nle-His-Asn-Leu-NH-(CH2)6-CO-Thr-Glu-Arg-Met-Ala] (peptide)
peptide: cyclo([Nle]HNL[Ahp]TERMA)
SMILES: CCCC[C@@H]1NC(=O)[C@H](C)NC(=O)[C@H](CCSC)NC(=O)[C@H](CCCNC(=N)N)NC(=O)[C@H](CCC(=O)O)NC(=O)[C@H]([C@@H](C)O)NC(=O)CCCCCCNC(=O)[C@H](CC(C)C)NC(=O)[C@H](CC(N)=O)NC(=O)[C@H](Cc2c[nH]cn2)NC1=O
Turning to B15, the IC50 lay in the range of 1 to 10 µM.

B16: Cyclo[Leu-His-Asn-Leu-NH-(CH2)5-CO-Thr-Glu-Arg-Met-Ala] (peptide)
peptide: cyclo(LHNL[Ahx]TERMA)
SMILES: CSCC[C@@H]1NC(=O)[C@H](CCCNC(=N)N)NC(=O)[C@H](CCC(=O)O)NC(=O)[C@H]([C@@H](C)O)NC(=O)CCCCCNC(=O)[C@H](CC(C)C)NC(=O)[C@H](CC(N)=O)NC(=O)[C@H](Cc2c[nH]cn2)NC(=O)[C@H](CC(C)C)NC(=O)[C@H](C)NC1=O
In turn, B16 gave an IC50 of 1 to 10 µM.
